The values below are quoted from earlier work in paper PMC5620257.

Read-outs that look alike come from different tables or passages of the source.

The target in series [1] is PD1 (Homo sapiens) (UniProt Q15116).
The target is the same in series [2]. This is another data set of the same source.

Chain of UniProt Q15116 (Q15116 25-170): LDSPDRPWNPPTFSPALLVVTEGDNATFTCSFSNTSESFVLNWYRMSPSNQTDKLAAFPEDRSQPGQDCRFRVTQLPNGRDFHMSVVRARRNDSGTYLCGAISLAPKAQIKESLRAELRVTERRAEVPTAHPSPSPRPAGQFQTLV

As usually defined, the Kd is the constant that tells how readily two partners part at equilibrium. For the substance PD-L1 (from UniProt Q9NZQ7), the dissociation constant (Kd) is 0.77 µM in series [1] and 26.6 µM in series [2].
